Target: PrnA (Pseudomonas fluorescens, UniProt P95480)
Test: Halogenation by PrnA expressed in transgenic plants, immunopurified and assayed in vitro (Example 5)
Format: biochemical
Set-up: made in house; host or cells: Transgenic Arabidopsis thaliana (Columbia) lines 3 and 12; leaf extract immunopurified on goat anti-PrnA sera with anti-goat-IgG-agarose
Conditions: immunopurified PrnA with Fre (20 microliter, 21 microgram/ml), overnight
Method: Arabidopsis thaliana, ecotype Columbia, is transformed (by the Agrobacterium-mediated transformation method) with the four nucleic acid molecules of the pyrrolnitrin operon, encoding PrnA, PrnB, PrnC & PrnD, each behind the ubiquitin promoter as described below in Example 6.
Two transformed lines (3 and 12) and a nontransformed control line are grown and leaves (1 g) harvested. The leaves are frozen in liquid N2, powdered in a mortar and extracted with 6 ml of LS buffer (50 mM HEPES, pH 7.5, 5 mM NaCl). After centrifugation at 5000×g for 15 min to pellet debris, the supernate is filtered through glass wool to remove residual particles.
PrnA is immunopurified by mixing extract (3 ml) with an affinity matrix. The affinity matrix is prepared by mixing for 30 minutes, at room temperature, 100 microliters of rabbit antigoat-IgG-agarose (purchased from Sigma) with 50 microliters of goat anti-PrnA sera. Then the agarose beads are washed three times with 1 ml of LS buffer. After mixing the 3 ml sample with the affinity matrix, unabsorbed material is removed from the beads by washing with LS buffer. A positive control sample is prepared by mixing 5 microliter of PrnA (0.36 microgram/microliter) purified from Pseudomonas fluorescens as described in Example 1 with 3 ml LS then treating in parallel with the plant extract samples. […]

B1: PrnA: PrnA purified from Pseudomonas fluorescens, positive control added to non-transformed plant extract (protein)
chain: MNKPIKNIVIVGGGTAGWMAASYLVRALQQQANITLIESAAIPRIGVGEATIPSLQKVFFDFLGIPEREWMPQVNGAFKAAIKFVNWRKSPDPSRDDHFYHLFGNVPNCDGVPLTHYWLRKREQGFQQPMEYACYPQPGALDGKLAPCLSDGTRQMSHAWHFDAHLVADFLKRWAVERGVNRVVDEVVDVRLNNRGYISNLLTKEGRTLEADLFIDCSGMRGLLINQALKEPFIDMSDYLLCDSAVASAVPNDDARDGVEPYTSSIAMNSGWTWKIPMLGRFGSGYVFSSHFTSRDQATADFLKLWGLSDNQPLNQIKFRVGRNKRAWVNNCVSIGLSSCFLEPLESTGIYFIYAALYQLVKHFPDTSFDPRLSDAFNAEIVHMFDDCRDFVQAHYFTTSRDDTPFWLANRHDLRLSDAIKEKVQRYKAGLPLTTTSFDDSTYYETFDYEFKNFWLNGNYYCIFAGLGMLPDRSLPLLQHRPESIEKAEAMFASIRREAERLRTSLPTNYDYLRSLRDGDAGLSRGQRGPKLAAQESL
level of 7-Cl-Trp found: 185 pmol
